{
  "source": "patent US5919635A",
  "about": "(ZymoGenetics, Inc., priority 1995, dated 1999)",
  "biological_target": "T1, cloned receptor (rat glucagon receptor, pLJ4) (Rattus norvegicus, UniProt P30082)",
  "T1 construct": "pLJ4 contained an approximately 2 kb insert encoding a 485 amino acid protein; expressed in transfected cells; host or cells: BHK570",
  "T1 sequence (P30082 27-485)": "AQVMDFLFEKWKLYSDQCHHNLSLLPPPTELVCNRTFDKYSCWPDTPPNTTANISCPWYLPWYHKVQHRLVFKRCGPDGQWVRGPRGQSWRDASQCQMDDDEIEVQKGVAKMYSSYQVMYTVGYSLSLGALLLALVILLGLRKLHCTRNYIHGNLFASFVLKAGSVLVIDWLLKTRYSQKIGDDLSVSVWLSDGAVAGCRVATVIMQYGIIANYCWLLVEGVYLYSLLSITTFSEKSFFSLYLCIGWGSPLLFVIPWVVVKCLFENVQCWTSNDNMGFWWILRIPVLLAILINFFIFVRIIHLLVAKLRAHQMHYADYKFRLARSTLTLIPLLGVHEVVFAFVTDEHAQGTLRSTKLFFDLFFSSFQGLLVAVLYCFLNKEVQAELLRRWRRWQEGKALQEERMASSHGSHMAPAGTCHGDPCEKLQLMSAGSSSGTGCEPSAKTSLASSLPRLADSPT",
  "assay": "Competition binding / Scatchard analysis with ^125 I-glucagon on membranes of pLJ4 BHK transfectants",
  "description": "Membranes from the pLJ4 BHK transfectants were compared with rat liver membrane preparations for the ability to bind ^125 I-glucagon. Membranes were prepared essentially described by Rodbell et al. (J. Biol Chem. 246:1861-1871, 1971, which is incorporated by reference herein in its entirety). Two batches of liver membranes were each prepared from approximately 80 gm of liver from 12 to 16 decapitated young female rats. The livers were removed quickly and placed into an iced beaker. The livers were separated into ten-gram portions. The portions were minced with scissors, and connective tissue was removed during the mincing procedure. The portions were separately homogenized in a Dounce homogenizer. To each portion, 25 ml of Medium (Table 2) was added to the minced tissue in the homogenizer, and the tissue was homogenized in an ice bucket with eight vigorous strokes of the loose pestle. After homogenization, the homogenates were pooled into 450 ml of cold Medium (Table 2). The pooled homogenates were stirred for 3 minutes and filtered through two layers of cheesecloth followed by filtering through four layers of cheesecloth. The homogenates were then centrifuged for 30 minutes at 1500×g at 4° C. The supernatants were discarded, and the pellets were pooled into a clean Dounce homogenizer. The pellets were resuspended with three gentle strokes of the loose pestle. The resuspended pellets were decanted into a 250 ml graduate containing 62 ml of 69% Sucrose Solution (Table 2). Distilled water was added to a final volume of 110 ml, and the mixture was thoroughly mixed and kept cold. The concentration of the solution was adjusted to 44.0%+/-0.1% using 69% sucrose or water as measured by a refractometer (Bausch & Lomb, Rochester, N.Y.). […]\nTo each tube 100 μl of 2× binding buffer; 20 μl of ^125 I-glucagon (Amersham); 20 μl of 1 mM NaHCO3; 20 μl 10 mM HOAc, 0.5% BSA (Novo Nordisk N/A, Bagsvaerd, Denmark); and 40 μl of distilled water were added. […] The supernatants from each sample were aspirated, and the pellets were counted. […]",
  "data": [
    {"substance": "glucagon: 29 amino acid hormone produced by the alpha cells of pancreatic islets; human glucagon (Sigma)", "values": [
      {"measurement": "Kd", "setting": "Scatchard analysis, cloned receptor, BHK transfectant membranes, 30 minutes at 30° C., read-out: apparent Kd", "result": 50, "unit": "nM"},
      {"measurement": "ability to compete for ^125 I-glucagon binding", "setting": "micromolar amounts (Table 7: 1 μM glucagon and des-His^1 [Glu^9]glucagon amide)", "result": "able to compete"}
    ]}
  ]
}
